The text below walks through data of patent US20210206856A1 (PANDION OPERATIONS, published 2021).

In assay [1] the target is T1, mouse MAdCAM expressed on cells (mouse, UniProt Q61826 22-405).
T1 construct: whole, on cells
T1 sequence (looked up): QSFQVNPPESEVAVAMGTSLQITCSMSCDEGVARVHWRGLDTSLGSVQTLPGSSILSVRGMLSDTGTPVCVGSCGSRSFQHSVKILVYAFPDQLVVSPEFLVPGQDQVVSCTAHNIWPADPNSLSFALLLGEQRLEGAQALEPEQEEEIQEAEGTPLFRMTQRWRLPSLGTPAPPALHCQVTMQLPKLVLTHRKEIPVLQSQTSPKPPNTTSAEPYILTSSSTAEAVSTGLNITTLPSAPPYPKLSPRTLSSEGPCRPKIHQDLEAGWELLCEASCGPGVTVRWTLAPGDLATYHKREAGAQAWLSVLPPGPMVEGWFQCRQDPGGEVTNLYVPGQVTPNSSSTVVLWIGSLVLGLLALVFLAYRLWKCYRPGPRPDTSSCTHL
As to the kind of experiment: cell binding.

For assay [2], the target named is T2, human MAdCAM expressed on cells (human, UniProt Q13477 19-382).
T2 construct: whole, on cells; also called MADCAM1
T2 sequence (looked up): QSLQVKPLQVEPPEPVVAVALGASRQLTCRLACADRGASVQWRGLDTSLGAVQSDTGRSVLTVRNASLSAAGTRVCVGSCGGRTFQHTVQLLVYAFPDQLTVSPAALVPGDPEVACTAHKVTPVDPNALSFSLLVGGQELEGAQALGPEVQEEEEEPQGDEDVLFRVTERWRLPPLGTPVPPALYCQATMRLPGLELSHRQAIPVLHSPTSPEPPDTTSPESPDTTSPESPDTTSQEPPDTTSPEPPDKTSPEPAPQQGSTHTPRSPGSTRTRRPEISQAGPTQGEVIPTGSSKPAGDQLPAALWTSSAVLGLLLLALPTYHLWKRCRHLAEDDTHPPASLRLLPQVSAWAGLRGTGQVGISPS
As to the kind of experiment: cell binding.

B1: MAdCAM Antibody Table 2 Clone 44 (antibody, human IgG1, V domains shown)
VH: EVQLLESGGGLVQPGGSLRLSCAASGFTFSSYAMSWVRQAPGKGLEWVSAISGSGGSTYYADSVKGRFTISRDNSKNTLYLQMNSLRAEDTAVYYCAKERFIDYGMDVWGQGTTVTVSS
VL: DIQMTQSPSSLSASVGDRVTITCQASQDISNYLNWYQQKPGKAPKLLIYAASSLQSGVPSRFSGSGSGTDFTLTISSLQPEDFATYYCQQTYSGWTFGPGTKVDIK
As for B1, the results for the binding result in assay [1] and in assay [2] were “no binding” and “binds”, respectively.

B2: MAdCAM Antibody Table 2 Clone 37 (antibody, human IgG1, V domains shown)
VH: EVQLLESGGGLVQPGGSLRLSCAASGFTFSDYGMPWVRQAPGKGLEWVSAISGSGGSTYYADSVKGRFTISRDNSKNTLYLQMNSLRAEDTAVYYCARDGGWQPAAILDYWGQGTLVTVSS
VL: DIQMTQSPSSLSASVGDRVTITCRASQGISNNLNWYQQKPGKAPKLLIYDASNLETGVPSRFSGSGSGTDFTLTISSLQPEDFATYYCQQSYSTPLTFGQGTKVEIK
For B2, the figures for the binding result in assay [1] and in assay [2] were “no binding” and “binds”, respectively.

B3: MAdCAM Antibody Table 2 Clone 38 (antibody, human IgG1, V domains shown)
VH: QVQLVQSGAEVKKPGASVKVSCKASGYTFTDYFLHWVRQAPGQGLEWMGWMNPTSGNTGYAQKFQGRVTMTRDTSTSTVYMELSSLRSEDTAVYYCAREGEGSGFDYWGQGTLVTVSS
VL: DIQMTQSPSSLSASVGDRVTITCRASQGINSWLAWYQQKPGKAPKLLIYDASNLETGVPSRFSGSGSGTDFTLTISSLQPEDFATYYCQQSYSTPLTFGGGTKVEIK
Consider B3, for which the binding result in assay [1] is given as “no binding”; in assay [2], “binds”.

B4: MAdCAM Antibody Table 2 Clone 59 (antibody, human IgG1, V domains shown)
VH: EVQLLESGGGLVQPGGSLRLSCAASGFSFSDYGMHWVRQAPGKGLEWVSAISGSGGSTYYADSVKGRFTISRDNSKNTLYLQMNSLRAEDTAVYYCARDGGWQPAAILDYWGQGTLVTVSS
VL: DIQMTQSPSSLSASVGDRVTITCRASQGISNNLNWYQQKPGKAPKLLIYDASNLETGVPSRFSGSGSGTDFTLTISSLQPEDFATYYCQQSYSTPLTFGGGTKVEIK
With B4, the binding result in assay [1] was “no binding”; in assay [2] it was “binds”.

B5: MAdCAM Antibody Table 2 Clone 54 (antibody, human IgG1, V domains shown)
VH: QVQLVQSGAEVKKPGSSVKVSCKASGGTLSRYGVSWVRQAPGQGLEWMGGIIPIFGTTNYAQKFQGRVTITADESTSTAYMELSSLRSEDTAVYYCARDRVYYDSSGYPTWYFDLWGRGTLVTVSS
VL: EIVMTQSPATLSVSPGERATLSCRASQSVSSSYLAWYQQKPGQAPRLLIYGASTRATGIPARFSGSGSGTEFTLTISSLQSEDFAVYYCQQYGSSPITFGQGTKVEIK
Take B5: the binding result in assay [1] was “no binding”; in assay [2], “binds”.

B6: MAdCAM Antibody Table 2 Clone 36 (antibody, human IgG1, V domains shown)
VH: EVQLLESGGGLVQPGGSLRLSCAASGFTFDDYALHWVRQAPGKGLEWVSAISGDGRSTTYADSVKGRFTISRDNSKNTLYLQMNSLRAEDTAVYYCARDGTVNGATGWFDPWGQGTLVTVSS
VL: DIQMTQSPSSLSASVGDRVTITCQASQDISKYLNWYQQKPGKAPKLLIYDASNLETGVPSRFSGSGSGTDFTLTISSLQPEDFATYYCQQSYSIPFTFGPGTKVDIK
Take B6: the binding result in assay [1] and in assay [2] was “binds” in each case.

B7: MAdCAM Antibody Table 2 Clone 52 (antibody, human IgG1, V domains shown)
VH: EVQLLESGGGLVQPGGSLRLSCAASGFTFDDYGMSWVRQAPGKGLEWVSYISSSSSYIYYADSVKGRFTISRDNSKNTLYLQMNSLRAEDTAVYYCAREIAAAGFYGMDVWGQGTTVTVSS
VL: not shown
Turning to B7, the binding result in assay [1] was “no binding”; in assay [2] it was “binds”.

B8: MAdCAM Antibody Table 2 Clone 45 (antibody, human IgG1, V domains shown)
VH: EVQLVESGGGLVKPGGSLRLSCAASGFTFGDYAMSWVRQAPGKGLEWVSYISGDIGYTNYAAPVKGRFTISRDDSKNTLYLQMNSLKTEDTAVYYCARDVAATGNWYFDLWGRGTLVTVSS
VL: not shown
Take B8: the binding result in assay [1] is “no binding”; in assay [2], “binds”.

B9: MAdCAM Antibody Table 2 Clone 34 (antibody, human IgG1, V domains shown)
VH: QVQLVQSGAEVKKPGASVKVSCKASGYTFTGYYIHWVRQAPGQGLEWMGWMNPNSGNTGYAQKFQGRVTMTRDTSTSTVYMELSSLRSEDTAVYYCARDPGFLGYCSGGSCYDGWFDPWGQGTLVTVSS
VL: DIQMTQSPSSLSASVGDRVTITCRASQSISSYLHWYQQKPGKAPKLLIYAASSLQSGVPSRFSGSGSGTDFTLTISSLQPEDFATYYCQQSYTAPYTFGQGTKLEIK
As to B9, the values for the binding result in assay [1] and in assay [2] were “no binding” and “binds”, respectively.

B10: MAdCAM Antibody Table 2 Clone 40 (antibody, human IgG1, V domains shown)
VH: QVQLVQSGAEVKKPGASVKVSCKASGYTLTTWYMYWVRQAPGQGLEWMGWINPNRGATNYAQKFQGRVTMTRDTSTSTVYMELSSLRSEDTAVYYCAKGDLWGAMDVWGQGTLVTVSS
VL: DIQMTQSPSSLSASVGDRVTITCRASDNIGSWLAWYQQKPGKAPKLLIYAASSLQSGVPSRFSGSGSGTDFTLTISSLQPEDFATYYCQQGYSTPPTFGQGTKVEIK
B10: the binding result in assay [1] is “no binding”; in assay [2], “binds”.

B11: MAdCAM Antibody Table 2 Clone 39 (antibody, human IgG1, V domains shown)
VH: QVQLVQSGAEVKKPGASVKVSCKASGYTFTSYYMHWVRQAPGQGLEWMAWMNPNSGNTGYAQKFQGRVTMTRDTSTSTVYMELSSLRSEDTAVYYCARDYDFWSGSLGYWGQGTLVTVSS
VL: DIQMTQSPSSLSASVGDRVTITCRASQGISNYLAWYQQKPGKAPKLLIYAASSLQSGVPSRFSGSGSGTDFTLTISSLQPEDFATYYCQQSYSTPWTFGQGTKVEIK
As to B11, the binding result in assay [1] is “no binding”; in assay [2], “binds”.

B12: MAdCAM Antibody Table 2 Clone 53 (antibody, human IgG1, V domains shown)
VH: QVQLVQSGAEVKKPGASVKVSCKASGYTFTSYYMHWVRQAPGQGLEWMGWMNPNSGNTGYAQKFQGRVTMTRDTSTSTVYMELSSLRSEDTAVYYCAREGLGYCTNGVCWNYYGMDVWGQGTLVTVSS
VL: DIQMTQSPSSLSASVGDRVTITCRASQGISSWLAWYQQKPGKAPKLLIYGASSLQSGVPSRFSGSGSGTDFTLTISSLQPEDFATYYCQQSYSTPYTFGQGTKVEIK
In the case of B12, the results for the binding result in assay [1] and in assay [2] were “no binding” and “binds”, respectively.

B13: MAdCAM Antibody Table 2 Clone 41 (antibody, human IgG1, V domains shown)
VH: QVQLVQSGAEVKKPGASVKVSCKASGYTFTSYYMHWVRQAPGQGLEWMGIINPSGGSTSYAQKFQGRVTMTRDTSTSTVYMELSSLRSEDTAVYYCARDTGYSYGRYYYYGMDVWGQGTLVTVSS
VL: DIQMTQSPSSLSASVGDRVTITCRASQSIGRWLAWYQQKPGKAPKLLIYDASNLQSGVPSRFSGSGSGTDFTLTISSLQPEDFATYYCQQSYSIPITFGQGTKVEIK
Regarding B13, the results for the binding result in assay [1] and in assay [2] were “no binding” and “binds”, respectively.

B14: MAdCAM Antibody Table 2 Clone 42 (antibody, human IgG1, V domains shown)
VH: QVQLVQSGAEVKKPGASVKVSCKASGYTLTDYYMHWVRQAPGQGLEWMGIINPSGGSTSYAQKFQGRVTMTRDTSTSTVYMELSSLRSEDTAVYYCAREEYSSSSGYFDYWGQGTLVTVSS
VL: DIQMTQSPSSLSASVGDRVTITCRASQGISSWLAWYQQKPGKAPKLLIYAASSLQSGVPSRFSGSGSGTDFTLTISSLQPEDFATYYCQQSYSTPLTFGQGTKVEIK
In the case of B14, the binding result in assay [1] is “no binding”; in assay [2] it was “binds”.

B15: MAdCAM Antibody Table 2 Clone 43 (antibody, human IgG1, V domains shown)
VH: QVQLVQSGAEVKKPGASVKVSCKASGYTFTSYGISWVRQAPGQGLEWMGWMHPKSGDTGLTQKFQGRVTMTRDTSTSTVYMELSSLRSEDTAVYYCARDTPYYYYGMDVWGQGTTVTVSS
VL: DIQMTQSPSSLSASVGDRVTITCRASQSISSWLAWYQQKPGKAPKLLIYAASSLQSGVPSRFSGSGSGTDFTLTISSLQPEDFATYYCQQSYSVPITFGQGTKVEIK
On to B15, for which the binding result is given as “no binding” in assay [1] and “binds” in assay [2].
